Experimental data: PMC5014651

T1: NS1B CTD wt (Influenza B virus (B/Lee/1940), UniProt P03502 141-281)
T1 sequence: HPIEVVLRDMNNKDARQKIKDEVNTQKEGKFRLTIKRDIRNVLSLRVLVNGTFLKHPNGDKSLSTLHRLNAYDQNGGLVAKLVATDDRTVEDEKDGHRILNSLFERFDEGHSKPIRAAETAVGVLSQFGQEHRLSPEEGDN

B1: 16 minus ssRNA (antisense) (ssRNA)
RNA: CGCCUGUAGAGGAUGG
B2: 16-bp dsRNA (dsRNA)
RNA 1: CGCCUGUAGAGGAUGG
RNA 2: CCAUCCUCUACAGGCG

Key:
[1] = molecular target: NS1B C-terminal domain (residues 141-281 of NS1B, influenza B/Lee/1940) (influenza B virus (B/lee/1940)) (UniProt P03502); assay: NMR titration
[2] = molecular target: NS1B C-terminal domain (residues 141-281 of NS1B, influenza B/Lee/1940) (influenza B virus (B/lee/1940)) (UniProt P03502); assay: NMR rotational correlation time
[3] = molecular target: T1, NS1B CTD wt; assay: fluorescence polarization
[4] = molecular target: NS1A CTD (Influenza A virus (Udorn), UniProt P03495 85-215); assay: fluorescence polarization
Chain of NS1A CTD (P03495 85-215): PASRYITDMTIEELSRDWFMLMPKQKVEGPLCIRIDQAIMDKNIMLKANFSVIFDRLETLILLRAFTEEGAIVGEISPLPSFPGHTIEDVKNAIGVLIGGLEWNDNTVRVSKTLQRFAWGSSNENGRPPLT

| Molecule | Kd [1] | Kd [2] | stoichiometry N [2] | Kd [3] | binding result [4] |
| --- | --- | --- | --- | --- | --- |
| NS1B C-terminal domain (residues 141-281 of NS1B, influenza B/Lee/1940) (from UniProt P03502 141-281) (domain or fragment) | 600 µM | 700 µM | 2 |  |  |
| B1 |  |  |  | 0.58 ± 0.05 µM |  |
| B2 |  |  |  | 0.13 ± 0.03 µM | no binding |
